First the molecules themselves.
T1: Fis (Vibrio parahaemolyticus RIMD2210633) (UniProt P64128)
T1 sequence: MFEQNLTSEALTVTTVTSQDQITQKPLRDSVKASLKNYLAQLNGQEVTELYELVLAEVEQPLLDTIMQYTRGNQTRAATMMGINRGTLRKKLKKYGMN

T2: Fis (Vibrio parahaemolyticus RIMD2210633, UniProt P64128 1-98)
T2 sequence: T1 sequence

B1: ParaB_WT (probe 3) (dsDNA)
DNA 1: TTTTTGTCCATAAACTTAGCAACCCTATTTATGGGATAACCCAC
DNA 2: GTGGGTTATCCCATAAATAGGGTTGCTAAGTTTATGGACAAAAA
B2: Qrr3coding_mut (dsDNA)
DNA 1: CCTTCTTAAGCCGAGAGTATCTTAGATAAATGACGTTGTTAGTGAA
DNA 2: TTCACTAACAACGTCATTTATCTAAGATACTCTCGGCTTAAGAAGG
B3: ParaB_mut (probe 3) (dsDNA)
DNA 1: TTTTTATCACTCCTCGTAGAAACCCTATTTATGGGATAACCCAC
DNA 2: GTGGGTTATCCCATAAATAGGGTTTCTACGAGGAGTGATAAAAA

The values below come from paper PMC8630636, “Fis Connects Two Sensory Pathways, Quorum Sensing and Surface Sensing, to Control Motility in Vibrio parahaemolyticus”.

One series has as its target T1, Fis (Vibrio parahaemolyticus RIMD2210633). The series is described as follows: EMSA. The note with it: 10 mM Tris, 150 mM KCl, 0.1 mM DTT, 0.1 mM EDTA, 5% PEG, pH 7.4, 20 min at room temperature; 30 ng DNA; 6% native gel in 1x TAE at 4 C.
Consider “CCATTTGAAAAGGGATTGAGTGTTGTTGATAGAGTTTTTTTTACTGGAGATTTGATACGTTAACTGGATTTTTGTAACATTAAAATGGAAGTGTGATTTTGCTCAATAGCACAAAAGTCCAGTCCGGTGT (double strand) [VPA1424 regulatory region (negative control)]”, for which the binding entry is on record as “binds more weakly”.

For “AATCTACTTGTTGTTATAGCCAGAGCTGGTGGGTTATCCCATAAATAGGGTTGCTAAGTTTATGGACAAAAACGTCACTGGGTGTTTTTTGTGTCCTTTTTAACACCTTTATATATTGCTCAAAAATTAAGTGTTTTCGATCATGATTAACG (double strand) [ParaB probe 2]”, the binding result is reported as “binds”. The same measure, in the same setting: the value for “TATGTTAAGTTTCATAAAATGGCTTGATGTTTAAATGAACAGTTAATTTTTAGACCATATATAGCGAGATCTAAAGTAGTTCAAACAAATGTACGGTCTAACTCTTAGCTGCGAGAACAAACCACTTGGATATACGCTC (double strand) [PscrABC probe 3]” was “binds”; that for “CTTAATAATAGTTTTATCTATAAACAAACAGTGAGCTTTGTTATAAATTCATTAAAAATTTAACTTTGTATTAATTAGAAAATTCAGCGTCATATTTGTTCAACTGCGACTATTCTTTTTATAACCAAGTAATCTC (double strand) [PscrABC probe 2]” was “binds”; that for “TCACGCGAATACGCACTTTAATACGTATGTCTAATGTTTATACGCGACCACTTTCGCCTAAAAGTTTAGGTATAGTTGATAATTAGTCGACTTAAGCAATCTATGTACCAAAATCAACGCCAAAATAATGACTCAAAGCTAAATAACAGCACAATCCATTG (double strand) [PflhA]” was “binds”. As to “CCATCCACTGGTAGAGGTGAGTGTTCGCTGTACATATTTGTGCATCCTTGACCATTTGTTAGTGATAAAAATCACAGCGGAAAAATGTAGCAATTTTGTCCATTCATTTAGCTACAGAGGCTATGAAGCAGCTCTCAA (double strand) [ParaB probe 1]”, the binding result was “binds”.

Consider “CATAGGTTCACCTTTAAGAATTATTGTTTGTGTTATGGTTCACATTTATTTCAGTTACCGGTAACATGTTACCGATAACATGAATAAGATAAACCCATATTTTAAAGTGAATTCAAAAATTGAGATCACGCGCAAATT (double strand) [PgntK probe 1]”, for which the binding entry is given as “binds”. “AGCCTGACGTTGGTAAGGTGCGCTAAAACACCAAAATATGCCGAGTTAAAAGATACCAAAAATCGATGTACTTCCTCTGTAGGAATAGTCCTATTTACATAGCAGGAAACACCTAAAGCAGCGCTTTATTAACGGCTTAATCAACACGTCACATTCCTAAAATGAATTAAATATTTTCAGCTTTTTAGTCGCCTTGTCTTATAGGGAAACACTAGATGTTTTCGAGAGGAAGGCGGAACACATA (double strand) [PlafB]”: the binding entry is “binds”. On the same count and under the same terms, the entry for “GCGTTTATCATAAAAATAGTCAATTTAATGAATATTTTAATATGTATTCAGTTGTTTATTGGTTGGAGGCGAAACTGTTGCTTATGTCATCAAATAAGCTAAAAAAGTGGAACTAAAGTCACTTAATGGCAGAGTAAAAAATTAAAG (double strand) [PscrABC probe 1]” is “binds”.

On to “GAGCTCTCCTAGGTACCAACCGTGAAATCCATTTACTGAGGTATTTTTCCTCATTAATTAGCAGTATAGGGTAAAAATATGAAAGCTAATGGATAATCATAAAGTAGTAGTTGGTTTTTTGCTGAGAAAGTGATTAGTAGCAATGTAACAAGTGGCATATTTGCATGCTATTGCATTTTGCAAATGCAATTTGCGAAAGTGCTGGTTAATAATGCGTCGATATGCACCTGGATCTATTAAAAAACGGCTTTTTTAAAGTTGGCACGCATCGTGCTTTATCTAGAG (double strand) [Pqrr4]”, for which the binding result was “binds”.

Another series deals with T2, Fis. The series is described as follows: EMSA; 10 mM Tris, 150 mM KCl, 0.1 mM DTT, 0.1 mM EDTA, 5% PEG, pH 7.4, 20 min at room temperature; 30 ng DNA; 6% native gel in 1x TAE at 4 C. The note with it: protein: recombinant; tags: 6xHis-MBP fusion (pMAL-c5x) removed by TEV cleavage; chain copies: 2; blunt. (A gel shift assay detects complexes by their altered migration in electrophoresis.)
In the case of B1, the binding result is recorded as “binds”.

On to B2, for which the binding result is recorded as “no binding”.

Take B3: the binding result was “no binding”.
